Patent US20230012428A1 (JIANGSU HENGRUI MEDICINE, published 2023)
Like-named read-outs stand apart in the source and are kept apart here.

B1: Anti PD-L1 IgG4 antibody h1830 (antibody, V domains shown)
VH: QVQLQESGPGLVKPSQTLSLTCTVSGGSISDGSAYWSWIRQHPGKGLEYIGFISRAGSTYNTPSLKGRVTISRDTSKNQFSLKLSSVTAADTAVYYCARSGGWLAPFDYWGRGTLVTVSS
VL: DIVMTQSPDSLAVSLGERATINCKSSQSLFYHSNQKHSLAWYQQKPGQPPKLLIYGASTRESGVPDRFSGSGSGTDFTLTISSLQAEDVAVYYCQQYYGYPYTFGGGTKVEIKR
notes: also called PD-L1 monoclonal antibody h1830
B2: PD-L1 antibody h1831 (antibody, human IgG4 S228P, kappa, V domains shown)
VH: QVQLVQSGAEVKKPGASVKVSCKASGYTFTSYWMHWVRQAPGQGLEWMGRITPSSGFAMYNEKFKNRVTMTRDTSTSTVYMELSSLRSEDTAVYYCARGGSSYDYFDYWGQGTTVTVSS
VL: DIVLTQSPASLAVSPGQRATITCRASESVSIHGTHLMHWYQQKPGQPPKLLIYAASNLESGVPARFSGSGSGTDFTLTINPVEAEDTANYYCQQSFEDPLTFGQGTKLEIKR
B3: h1831-19-S58 (bispecific antibody, human IgG4 S228P, kappa)
heavy: not shown
light: DIVLTQSPASLAVSPGQRATITCRASESVSIHGTHLMHWYQQKPGQPPKLLIYAASNLESGVPARFSGSGSGTDFTLTINPVEAEDTANYYCQQSFEDPLTFGQGTKLEIKRTVAAPSVFIFPPSDEQLKSGTASVVCLLNNFYPREAKVQWKVDNALQSGNSQESVTEQDSKDSTYSLSSTLTLSKADYEKHKVYACEVTHQGLSSPVTKSFNRGEC
notes: Anti-PD-L1 IgG4 antibody h1831 with SIRPγ variant S58, GS19 linker; also called PD-L1-CD47 bifunctional fusion protein
B4: h1831-19-S37 (bispecific antibody, human IgG4 S228P, kappa)
heavy: not shown
light: DIVLTQSPASLAVSPGQRATITCRASESVSIHGTHLMHWYQQKPGQPPKLLIYAASNLESGVPARFSGSGSGTDFTLTINPVEAEDTANYYCQQSFEDPLTFGQGTKLEIKRTVAAPSVFIFPPSDEQLKSGTASVVCLLNNFYPREAKVQWKVDNALQSGNSQESVTEQDSKDSTYSLSSTLTLSKADYEKHKVYACEVTHQGLSSPVTKSFNRGEC
notes: h1831 IgG4 with SIRPγ variant S37, GS19 linker; also called PD-L1-CD47 bifunctional fusion protein
B5: h1831-19-S79 (bispecific antibody, human IgG4 S228P, kappa)
heavy: not shown
light: DIVLTQSPASLAVSPGQRATITCRASESVSIHGTHLMHWYQQKPGQPPKLLIYAASNLESGVPARFSGSGSGTDFTLTINPVEAEDTANYYCQQSFEDPLTFGQGTKLEIKRTVAAPSVFIFPPSDEQLKSGTASVVCLLNNFYPREAKVQWKVDNALQSGNSQESVTEQDSKDSTYSLSSTLTLSKADYEKHKVYACEVTHQGLSSPVTKSFNRGEC
notes: h1831 IgG4 with SIRPγ variant S79, GS19 linker; also called PD-L1-CD47 bifunctional fusion protein
B6: h1831K-19-S37 (bispecific antibody, human IgG4 S228P, kappa)
heavy: not shown
light: DIVLTQSPASLAVSPGQRATITCRASESVSIHGTHLMHWYQQKPGQPPKLLIYAASKLESGVPARFSGSGSGTDFTLTINPVEAEDTANYYCQQSFEDPLTFGQGTKLEIKRTVAAPSVFIFPPSDEQLKSGTASVVCLLNNFYPREAKVQWKVDNALQSGNSQESVTEQDSKDSTYSLSSTLTLSKADYEKHKVYACEVTHQGLSSPVTKSFNRGEC
notes: h1831K IgG4 (h1831 with light chain N53K) with SIRPγ variant S37, GS19 linker; also called h831K-19-S37; PD-L1-CD47 bifunctional fusion protein
B7: HRP00052 (antibody, V domains shown)
VH: QVQLVQSGAEVKKPGASVKVSCKASGYTFTSYWMHWVRQAPGQGLEWMGRIGPNSGFTSYNEKFKNRVTMTRDTSTSTVYMELSSLRSEDTAVYYCARGGSSYDYFDYWGQGTTVTVSS
VL: DIVLTQSPASLAVSPGQRATITCRASESVSIHGTHLMHWYQQKPGQPPKLLIYAASNLESGVPARFSGSGSGTDFTLTINPVEAEDTANYYCQQSFEDPLTFGQGTKLEIKR
B8: Anti-CD47 antibody Hu167-IgG4 AA (antibody, V domains shown)
VH: QVQLVQSGAEVKKPGASVKVSCKASGYTFTSYWMHWVRQAPGQGLEWMGNIDPSDSETHYNQKFKDRVTMTRDTSISTAYMELSRLRSDDTAVYYCARWGYLGRSAMDYWGQGTTVTVSS
VL: DVQITQSPSSLSASVGDRVTITCRTSKSISKFLAWYQQKPGKAPKLLIYSGSTLQSGVPSRFSGSGSGTDFTLTISSLQPEDFATYYCQQHNEYPWTFGGGTKVEIKR
notes: Control antibody, prepared according to WO2018095428A1; also called Hul67 IgG4AA
B9: Anti-CD47 antibody hu5F9 (antibody, human IgG4 S228P, kappa, V domains shown)
VH: QVQLVQSGAEVKKPGASVKVSCKASGYTFTNYNMHWVRQAPGQRLEWMGTIYPGNDDTSYNQKFKDRVTITADTSASTAYMELSSLRSEDTAVYYCARGGYRAMDYWGQGTLVTVSS
VL: DIVMTQSPLSLPVTPGEPASISCRSSQSIVYSNGNTYLGWYLQKPGQSPQLLIYKVSNRFSGVPDRFSGSGSGTDFTLKISRVEAEDVGVYYCFQGSHVPYTFGQGTKLEIKR
notes: Control antibody

Tests used:
hPD-L1-His [1] = target: T1, hPD-L1-His (human, UniProt Q9NZQ7 19-239); assay: SPR (Biacore T200), binder captured on Protein A chip, antigen in flow
T1 construct: Bought; also called Human PD-L1-his; Human PD-L1; not shown: His tag

mPD-L1 [2] = target: T2, mPD-L1 (mouse, UniProt Q9EP73 19-238); assay: as above
T2 construct: Bought; also called Mouse PD-L1-his; Mouse PD-L1

Cyno PD-L1-His [3] = target: T3, Cyno PD-L1-His (cyno, UniProt G7PSE7 19-239); assay: as above
T3 construct: Bought; not shown: His tag

hPD-L1-His [4] = target: T1, hPD-L1-His; assay: ELISA, PD-L1-his coated on plate
mPD-L1 [5] = target: T2, mPD-L1; assay: ELISA, PD-L1-his coated on plate
Cyno PD-L1-His [6] = target: T3, Cyno PD-L1-His; assay: ELISA, PD-L1-his coated on plate
[7] = target: T4, PD-L1-Fc (prepared in-house) (human, UniProt Q9NZQ7 19-238, limits assumed); assay: blocking ELISA, PD-L1-Fc coated, competitor biotin-labeled PD-1
T4 construct: Prepared in-house; also called human PD-L1-Fc; not shown: Fc

[8] = target: T5, natural CD47 on the surface of human red blood cells (human, UniProt Q08722 19-323); assay: flow cytometry on human red blood cells, 10 µg/ml, Alexa 488 goat anti-human IgG secondary antibody, geometric mean
T5 construct: whole, on cells; also called CD47 on the surface of red blood cells

[9] = target: T4, PD-L1-Fc (prepared in-house); assay: blocking ELISA, PD-L1-Fc coated, competitor biotin-labeled B7-1
[10] = target: T6, Human CD47-his (CD47-ECD-His) (human, UniProt Q08722 19-139, limits assumed); assay: ELISA, CD47-his coated on plate
T6 construct: also called hCD47; free human CD47 protein

Cyno CD47-his [11] = target: T7, Cyno CD47-his (cyno, UniProt A0A2K5X523 19-139); assay: ELISA, CD47-his coated on plate
T7 construct: extracellular domain; not shown: His tag

[12] = target: T6, Human CD47-his (CD47-ECD-His); assay: SPR (Biacore T200), binder captured on Protein A chip, antigen in flow
Cyno CD47-his [13] = target: T7, Cyno CD47-his; assay: as above
[14] = target: T6, Human CD47-his (CD47-ECD-His); assay: ELISA, CD47-his coated on plate; remark: listed apart in the source
Cyno CD47-his [15] = target: T7, Cyno CD47-his; assay: ELISA, CD47-his coated on plate; remark: listed apart in the source
[16] = target: T8, CD47 extracellular domain and human IgG1Fc fusion protein (CD47-ECD-Fc) (human); assay: blocking ELISA, CD47-Fc coated, competitor biotin-labeled SIRPα-his
T8 construct: also called CD47-Fc

Binder | Kd (hPD-L1-His [1]) [nM] | Kd (mPD-L1 [2]) [nM] | Kd (Cyno PD-L1-His [3]) [nM] | EC50 (hPD-L1-His [4]) [µg/mL] | EC50 (mPD-L1 [5]) [µg/mL] | EC50 (Cyno PD-L1-His [6]) [µg/mL] | IC50 [7] [µg/mL] | binding result [8] | IC50 [9] [µg/mL] | binding result (mPD-L1 [2]) | EC50 [10] [µg/mL] | EC50 (Cyno CD47-his [11]) [µg/mL] | Kd [12] [nM] | Kd (Cyno CD47-his [13]) [nM] | EC50 [14] [µg/mL] | EC50 (Cyno CD47-his [15]) [µg/mL] | IC50 [16] [µg/mL]
B1 | 0.466 | 97.5 | 0.498 | 0.131 | 0.0289 | 0.23 | 0.035 | no binding (tested: 10 µg/ml) | 0.0752 | – | – | – | – | – | – | – | –
B2 | 0.0806 | – | 0.0919 | 0.129 | – | 0.222 | 0.0266 | no binding (tested: 10 µg/ml) | 0.0494 | no binding | – | – | – | – | – | – | –
B3 | 0.0825 | – | 0.0891 | 0.0947 | – | 0.237 | 0.122 | – | 0.16 | no binding | 0.0469 | 0.06 | 1.77 | 1.94 | – | – | –
B4 | 0.0529 | – | 0.0471 | – | – | – | – | – | – | no binding | – | – | 1.16 | 1.39 | – | – | –
B5 | 0.0874 | – | 0.121 | 0.0976 | – | 0.214 | 0.0723 | – | 0.113 | no binding | – | – | 3.83 | 4.63 | – | – | –
B6 | 0.0563 | – | 0.0493 | 0.046 | – | 0.0972 | – | – | – | no binding | – | – | 1.25 | 1.48 | 0.0609 | 0.033 | 0.252
B7 | 0.144 | – | 0.151 | 0.163 | – | 0.196 | 0.032 | – | 0.0307 | – | – | – | – | – | – | – | –
B8 | – | – | – | – | – | – | – | – | – | – | 0.0703 | 0.0317 | 0.653 | 1.09 | – | – | –
B9 | – | – | – | – | – | – | – | – | – | – | – | – | – | – | – | – | 0.263
